Laboratory results published in publication PMC3788760.

Key:
[1] = target: a-domain of human PDI (human)
[2] = target: full-length human protein disulfide isomerase (PDI) (human) (UniProt P07237)
[3] = target: human PDI fragment abb’xa’ (human)
[4] = target: a-domain of human PDI (human); assay: ITC; 37.0°C; VP-ITC; 200 µM Tau244–372 in the syringe injected into 8.1 µM full-length PDI or domain a in the cell; 10 mM HEPES pH 7.4, 100 mM NaCl, no DTT; single set of identical sites model
[5] = target: full-length human protein disulfide isomerase (PDI) (human) (UniProt P07237); assay: as above
[6] = target: a-domain of human PDI (human); assay: ITC; 25.0°C; VP-ITC; 200 µM Tau244–372 (or 40 µM full-length Tau) in the syringe injected into 8.1 µM PDI or fragment (or 3.24 µM PDI) in the cell; 10 mM HEPES pH 7.4, 100 mM NaCl, no DTT; single set of identical sites model
[7] = target: full-length human protein disulfide isomerase (PDI) (human) (UniProt P07237); assay: as above
[8] = target: human PDI fragment abb’xa’ (human); assay: as above

Chain of human Tau fragment Tau244–372 (P10636 561-689): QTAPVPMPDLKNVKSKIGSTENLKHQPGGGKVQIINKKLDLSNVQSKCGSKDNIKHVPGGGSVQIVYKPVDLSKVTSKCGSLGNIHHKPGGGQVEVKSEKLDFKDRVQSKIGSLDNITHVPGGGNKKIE

lag time of Tau244–372 fibrillization (ThT, 37°C), 0–20 µM domain a (184 min without PDI); value at 20 µM [1]: 253 min | rate constant k for the growth of Tau244–372 fibrils (ThT), 0–20 µM domain a (falls from 36.7 without PDI); value at 20 µM [1]: 0.0176 min⁻¹ | t m of Tau244–372 fibrillization (ThT), 0–20 µM domain a (238.3 min without PDI); value at 20 µM [1]: 366 min | lag time of Tau244–372 fibrillization (ThT) with 100 g/l Ficoll 70, 20 µM full-length PDI (∼0 without PDI) [2]: 44.8 min | lag time of Tau244–372 fibrillization (ThT, 37°C, 10 µM Tau244–372, heparin, 1 mM DTT), 0–20 µM full-length PDI (184 min without PDI); value at 20 µM [2]: 242 min | rate constant k for the growth of Tau244–372 fibrils (ThT) with 100 g/l Ficoll 70, 20 µM full-length PDI (54.9 without PDI) [2]: 0.0314 min⁻¹ | rate constant k for the growth of Tau244–372 fibrils (ThT), 0–20 µM full-length PDI (falls from 36.7 without PDI); value at 20 µM [2]: 0.0224 min⁻¹ | t m (time to 50% of maximal ThT fluorescence) of Tau244–372 fibrillization, 0–20 µM full-length PDI (238.3 min without PDI); value at 20 µM [2]: 331 min | t m of Tau244–372 fibrillization (ThT) with 100 g/l Ficoll 70, 20 µM full-length PDI (11.6 min without PDI) [2]: 108 min | lag time of Tau244–372 fibrillization (ThT, 37°C), 0–20 µM abb’xa’ (184 min without PDI); value at 20 µM [3]: 247 min | rate constant k for the growth of Tau244–372 fibrils (ThT), 0–20 µM abb’xa’ (falls from 36.7 without PDI); value at 20 µM [3]: 0.0233 min⁻¹ | t m of Tau244–372 fibrillization (ThT), 0–20 µM abb’xa’ (238.3 min without PDI); value at 20 µM [3]: 333 min | Kd [4]: 1340 nM | dH [4]: -4.34 kcal/mol | stoichiometry N [4]: 0.56 | Kd [5]: 4.83 µM | dH [5]: -9.27 kcal/mol | stoichiometry N [5]: 1.02 | Kd [6]: 480 nM | dH [6]: -4 kcal/mol | stoichiometry N [6]: 0.489 | Kd [7]: 3.46 µM | dH [7]: -8.6 kcal/mol | stoichiometry N [7]: 0.8 | Kd [8]: 7.35 µM | dH [8]: -5.9 kcal/mol | stoichiometry N [8]: 0.97
Substance: human Tau fragment Tau244–372 (from UniProt P10636-8 244-372) (domain or fragment)
